Laboratory results published in patent US20250154198A1, “PEPTIDE INHIBITORS OF INTERLEUKIN-23 RECEPTOR” (Zealand Pharma A/S, priority 2021, published 2025).
*1 amine or outer side, *2 acyl side, *3 side chain or, on linkers, in order; H or OH if unused. Bridges are numbered along the chain shown (N, C = ends). [ ]: non-standard residue; d: D form. 1,3‑dibromopropan‑2‑one = linker (CAS 816-39-7) joining two Cys as 1,3-dithio-propan-2-one bridge -SCH2C(=O)CH2S-; Trp(1-Me) = Cn1cc(C[C@H](N)C(=O)O)c2ccccc21; 2Nal = N[C@@H](Cc1ccc2ccccc2c1)C(=O)O; AEF = NCCOc1ccc(C[C@H](N)C(=O)O)cc1; αMeL = CC(C)C[C@](C)(N)C(=O)O; CH2COCH2 = O=C(C[*:1])C[*:2]; αMeK = C[C@](N)(CCCCN)C(=O)O; 3Amb = NCc1cccc(C(=O)O)c1; Abu = CC[C@H](N)C(=O)O

T1: Nluc-IL23R fusion protein (human, UniProt Q5VWK5 22-629)
T1 construct: range 22-629; Stably expressed in HEK293 cells; also called hIL-23R; human IL-23R fused to a Nanoluc luciferase enzyme; not shown: Nanoluc luciferase (Promega N1371 plasmid) at the N-terminus
T1 sequence (looked up): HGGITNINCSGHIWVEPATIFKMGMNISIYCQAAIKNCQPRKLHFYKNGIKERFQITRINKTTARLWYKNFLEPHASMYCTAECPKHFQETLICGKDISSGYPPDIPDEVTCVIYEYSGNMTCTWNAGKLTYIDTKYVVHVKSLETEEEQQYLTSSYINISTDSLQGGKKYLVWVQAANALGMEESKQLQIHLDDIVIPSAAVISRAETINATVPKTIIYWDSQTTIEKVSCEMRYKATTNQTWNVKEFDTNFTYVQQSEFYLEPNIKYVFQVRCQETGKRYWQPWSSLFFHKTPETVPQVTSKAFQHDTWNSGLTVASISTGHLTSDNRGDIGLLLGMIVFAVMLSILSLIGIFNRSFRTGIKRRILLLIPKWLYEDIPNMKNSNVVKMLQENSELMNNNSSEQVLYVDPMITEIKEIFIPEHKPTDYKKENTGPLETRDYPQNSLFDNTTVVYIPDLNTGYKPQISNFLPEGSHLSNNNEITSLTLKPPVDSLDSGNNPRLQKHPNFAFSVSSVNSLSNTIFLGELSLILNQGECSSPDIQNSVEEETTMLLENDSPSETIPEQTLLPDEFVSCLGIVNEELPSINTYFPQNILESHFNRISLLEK

T2: human IL-23R endogenously expressed on DB cells (CRL-2289) (human, UniProt Q5VWK5 24-629)
T2 sequence (looked up): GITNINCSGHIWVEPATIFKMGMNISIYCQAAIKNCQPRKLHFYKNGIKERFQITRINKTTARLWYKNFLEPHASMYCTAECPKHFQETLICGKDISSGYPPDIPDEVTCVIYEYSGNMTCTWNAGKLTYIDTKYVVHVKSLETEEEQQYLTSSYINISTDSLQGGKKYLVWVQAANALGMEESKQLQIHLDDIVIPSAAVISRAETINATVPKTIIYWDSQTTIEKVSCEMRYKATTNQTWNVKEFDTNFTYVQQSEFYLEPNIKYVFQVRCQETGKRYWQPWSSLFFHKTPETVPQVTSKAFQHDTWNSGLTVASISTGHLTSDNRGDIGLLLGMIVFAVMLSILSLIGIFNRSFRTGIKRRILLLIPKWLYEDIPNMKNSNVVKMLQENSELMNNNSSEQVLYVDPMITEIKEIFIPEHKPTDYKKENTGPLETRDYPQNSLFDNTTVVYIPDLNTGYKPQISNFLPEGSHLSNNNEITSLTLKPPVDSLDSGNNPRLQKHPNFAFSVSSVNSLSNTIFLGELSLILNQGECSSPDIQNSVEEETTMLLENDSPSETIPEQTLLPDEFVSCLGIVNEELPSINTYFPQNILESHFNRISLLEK

B1: Compound C (peptide)
peptide: Ac-[Abu]QTWQC[AEF]W[αMeK]ENG-NH2
modifications: thioether 1-6
B2: Compound 32 (peptide)
peptide: KSCWQCWXLER
HELM: PEPTIDE1{[ac].K.S.C.W.Q.C.W.[Cn1cc(C[C@H](N[*:1])C(=O)[*:2])c2ccccc21].L.E.R.[am]}|CHEM1{[O=C(C[*:1])C[*:2]]}$PEPTIDE1,PEPTIDE1,2:R3-11:R3|PEPTIDE1,CHEM1,4:R3-1:R1|PEPTIDE1,CHEM1,7:R3-1:R2$$$V2.0
SMILES: CC(=O)N[C@H]1CCCCNC(=O)CC[C@@H](C(=O)N[C@@H](CCCNC(=N)N)C(N)=O)NC(=O)[C@H](CC(C)C)NC(=O)[C@H](Cc2cn(C)c3ccccc23)NC(=O)[C@H](Cc2c[nH]c3ccccc23)NC(=O)[C@@H]2CSCC(=O)CSC[C@H](NC(=O)[C@H](CO)NC1=O)C(=O)N[C@@H](Cc1c[nH]c3ccccc13)C(=O)N[C@@H](CCC(N)=O)C(=O)N2
B3: Compound 47 (peptide)
peptide: Ac-KSCWQC[AEF][2Nal][αMeL]ER-NH2
modifications: lactam 1-10; linker 3-6 via CH2COCH2
SMILES: CC(=O)N[C@H]1CCCCNC(=O)CC[C@@H](C(=O)N[C@@H](CCCNC(=N)N)C(N)=O)NC(=O)[C@](C)(CC(C)C)NC(=O)[C@H](Cc2ccc3ccccc3c2)NC(=O)[C@H](Cc2ccc(OCCN)cc2)NC(=O)[C@@H]2CSCC(=O)CSC[C@H](NC(=O)[C@H](CO)NC1=O)C(=O)N[C@@H](Cc1c[nH]c3ccccc13)C(=O)N[C@@H](CCC(N)=O)C(=O)N2
B4: Compound 12 (peptide)
peptide: Ac-ESCWQCWWLK-NH2
modifications: lactam 1-10; linker 3-6 via 1,3‑dibromopropan‑2‑one
B5: Compound 25 (peptide)
peptide: Ac-KSC[2Nal]QCW[2Nal]LER-NH2
modifications: lactam 1-10; linker 3-6 via CH2COCH2
SMILES: CC(=O)N[C@H]1CCCCNC(=O)CC[C@@H](C(=O)N[C@@H](CCCNC(=N)N)C(N)=O)NC(=O)[C@H](CC(C)C)NC(=O)[C@H](Cc2ccc3ccccc3c2)NC(=O)[C@H](Cc2c[nH]c3ccccc23)NC(=O)[C@@H]2CSCC(=O)CSC[C@H](NC(=O)[C@H](CO)NC1=O)C(=O)N[C@@H](Cc1ccc3ccccc3c1)C(=O)N[C@@H](CCC(N)=O)C(=O)N2
B6: Compound 27 (peptide)
peptide: Ac-KSC[Trp(1-Me)]QCW[2Nal]LER-NH2
modifications: lactam 1-10; linker 3-6 via CH2COCH2
SMILES: CC(=O)N[C@H]1CCCCNC(=O)CC[C@@H](C(=O)N[C@@H](CCCNC(=N)N)C(N)=O)NC(=O)[C@H](CC(C)C)NC(=O)[C@H](Cc2ccc3ccccc3c2)NC(=O)[C@H](Cc2c[nH]c3ccccc23)NC(=O)[C@@H]2CSCC(=O)CSC[C@H](NC(=O)[C@H](CO)NC1=O)C(=O)N[C@@H](Cc1cn(C)c3ccccc13)C(=O)N[C@@H](CCC(N)=O)C(=O)N2
B7: Compound 35 (peptide)
peptide: Ac-GCTCWECW[2Nal][αMeL]CR-NH2
modifications: linker 2-11, 4-7 via CH2COCH2
SMILES: CC(=O)NCC(=O)N[C@H]1CSCC(=O)CSC[C@@H](C(=O)N[C@@H](CCCNC(=N)N)C(N)=O)NC(=O)[C@](C)(CC(C)C)NC(=O)[C@H](Cc2ccc3ccccc3c2)NC(=O)[C@H](Cc2c[nH]c3ccccc23)NC(=O)[C@@H]2CSCC(=O)CSC[C@H](NC(=O)[C@H]([C@@H](C)O)NC1=O)C(=O)N[C@@H](Cc1c[nH]c3ccccc13)C(=O)N[C@@H](CCC(=O)O)C(=O)N2
B8: Compound 40 (peptide)
peptide: [3Amb]SCWQCW[2Nal][αMeL]ER-NH2
modifications: lactam N-10; linker 3-6 via CH2COCH2
SMILES: CC(C)C[C@]1(C)NC(=O)[C@H](Cc2ccc3ccccc3c2)NC(=O)[C@H](Cc2c[nH]c3ccccc23)NC(=O)[C@@H]2CSCC(=O)CSC[C@H](NC(=O)[C@H](CO)NC(=O)c3cccc(c3)CNC(=O)CC[C@@H](C(=O)N[C@@H](CCCNC(=N)N)C(N)=O)NC1=O)C(=O)N[C@@H](Cc1c[nH]c3ccccc13)C(=O)N[C@@H](CCC(N)=O)C(=O)N2
B9: Compound 1 (peptide)
peptide: DCSCWQCWWXCR
modifications: H-DC(1a)SC(2a)WQC(2a)WW[2-Me-Leu]C(1a)R-[NH2]; (1a)=[2,11] and (2a)=[4,7] 1,3-dithio-propan-2-one bridges
B10: Compound 57 (peptide)
peptide: Ac-DETCWQCW[2Nal][αMeL]KR-NH2
modifications: lactam 2-11; linker 4-7 via CH2COCH2
SMILES: CC(=O)N[C@@H](CC(=O)O)C(=O)N[C@H]1CCC(=O)NCCCC[C@@H](C(=O)N[C@@H](CCCNC(=N)N)C(N)=O)NC(=O)[C@](C)(CC(C)C)NC(=O)[C@H](Cc2ccc3ccccc3c2)NC(=O)[C@H](Cc2c[nH]c3ccccc23)NC(=O)[C@@H]2CSCC(=O)CSC[C@H](NC(=O)[C@H]([C@@H](C)O)NC1=O)C(=O)N[C@@H](Cc1c[nH]c3ccccc13)C(=O)N[C@@H](CCC(N)=O)C(=O)N2
B11: Compound 54 (peptide)
peptide: Ac-KSCWQC[AEF][2Nal]LER-NH2
modifications: lactam 1-10; disulfide 3-6
B12: Compound 28 (peptide)
peptide: Ac-DKSCWQC[2Nal][2Nal]LER-NH2
modifications: lactam 2-11; linker 4-7 via CH2COCH2
SMILES: CC(=O)N[C@@H](CC(=O)O)C(=O)N[C@H]1CCCCNC(=O)CC[C@@H](C(=O)N[C@@H](CCCNC(=N)N)C(N)=O)NC(=O)[C@H](CC(C)C)NC(=O)[C@H](Cc2ccc3ccccc3c2)NC(=O)[C@H](Cc2ccc3ccccc3c2)NC(=O)[C@@H]2CSCC(=O)CSC[C@H](NC(=O)[C@H](CO)NC1=O)C(=O)N[C@@H](Cc1c[nH]c3ccccc13)C(=O)N[C@@H](CCC(N)=O)C(=O)N2
B13: Compound 30 (peptide)
peptide: KSCWQCHXLER
HELM: PEPTIDE1{[ac].K.S.C.W.Q.C.H.[O=C([C@H](Cc1ccc2ccccc2c1)N[*:1])[*:2]].L.E.R.[am]}|CHEM1{[O=C(C[*:1])C[*:2]]}$PEPTIDE1,PEPTIDE1,2:R3-11:R3|PEPTIDE1,CHEM1,4:R3-1:R1|PEPTIDE1,CHEM1,7:R3-1:R2$$$V2.0
SMILES: CC(=O)N[C@H]1CCCCNC(=O)CC[C@@H](C(=O)N[C@@H](CCCNC(=N)N)C(N)=O)NC(=O)[C@H](CC(C)C)NC(=O)[C@H](Cc2ccc3ccccc3c2)NC(=O)[C@H](Cc2c[nH]cn2)NC(=O)[C@@H]2CSCC(=O)CSC[C@H](NC(=O)[C@H](CO)NC1=O)C(=O)N[C@@H](Cc1c[nH]c3ccccc13)C(=O)N[C@@H](CCC(N)=O)C(=O)N2
B14: Compound 31 (peptide)
peptide: KSCWQCWXLER
HELM: PEPTIDE1{[ac].K.S.C.W.Q.C.W.[O=C([C@H](Cc1ccc(F)cc1)N[*:1])[*:2]].L.E.R.[am]}|CHEM1{[O=C(C[*:1])C[*:2]]}$PEPTIDE1,PEPTIDE1,2:R3-11:R3|PEPTIDE1,CHEM1,4:R3-1:R1|PEPTIDE1,CHEM1,7:R3-1:R2$$$V2.0
SMILES: CC(=O)N[C@H]1CCCCNC(=O)CC[C@@H](C(=O)N[C@@H](CCCNC(=N)N)C(N)=O)NC(=O)[C@H](CC(C)C)NC(=O)[C@H](Cc2ccc(F)cc2)NC(=O)[C@H](Cc2c[nH]c3ccccc23)NC(=O)[C@@H]2CSCC(=O)CSC[C@H](NC(=O)[C@H](CO)NC1=O)C(=O)N[C@@H](Cc1c[nH]c3ccccc13)C(=O)N[C@@H](CCC(N)=O)C(=O)N2
B15: Compound 11 (peptide)
peptide: Ac-DESCWQCWWLK-NH2
modifications: lactam 2-11; linker 4-7 via 1,3‑dibromopropan‑2‑one

Target: T1, Nluc-IL23R fusion protein
Assay: BRET displacement of TAMRA-labelled peptide, Nluc-IL23R membranes

Q: For B1, which Ki is on record?
A: 2.11 nM

Q: How did the Ki turn out when B2 was run?
A: 14.2 nM

Q: With B3 as the binder, how does the Ki read?
A: 0.624 nM

Q: Which Ki does the source give for B4 here?
A: 373 nM

Q: How did the Ki turn out when B5 was run?
A: 185 nM

Q: With B6 as the binder, how does the Ki read?
A: 1.77 nM

Q: For B7, which Ki is on record?
A: 41.2 nM

Q: B8 was tested. Which Ki did it give?
A: 18.1 nM

Q: Which Ki does the source give for B9 here?
A: 79.8 nM

Q: How did the Ki turn out when B10 was run?
A: 68 nM

Q: B11 was tested. Which Ki did it give?
A: 178 nM

Q: For B12, which Ki is on record?
A: 4.52 nM

Q: B13 was tested. Which Ki did it give?
A: 5.53 nM

Q: With B14 as the binder, how does the Ki read?
A: 76.3 nM

Q: With B15 as the binder, how does the Ki read?
A: 706 nM

Target: T2, human IL-23R endogenously expressed on …
Assay: cell-based or functional assay

Q: How did the “IC50 (pSTAT3)” value turn out when B1 was run?
A: 13.8 nM

Q: With B2 as the binder, how does the “IC50 (pSTAT3)” value read?
A: 118 nM

Q: Which “IC50 (pSTAT3)” value does the source give for B3 here?
A: 17.2 nM

Q: B4 was tested. Which “IC50 (pSTAT3)” value did it give?
A: > 1 µM

Q: With B5 as the binder, how does the “IC50 (pSTAT3)” value read?
A: > 1 µM

Q: How did the “IC50 (pSTAT3)” value turn out when B6 was run?
A: 15.5 nM

Q: B9 was tested. Which “IC50 (pSTAT3)” value did it give?
A: 783 nM

Q: Which “IC50 (pSTAT3)” value does the source give for B10 here?
A: 167 nM

Q: B12 was tested. Which “IC50 (pSTAT3)” value did it give?
A: 27.4 nM

Q: How did the “IC50 (pSTAT3)” value turn out when B13 was run?
A: 68.6 nM

Q: With B14 as the binder, how does the “IC50 (pSTAT3)” value read?
A: 968 nM

Q: For B15, which “IC50 (pSTAT3)” value is on record?
A: > 1 µM
